Experimental data as given in US20200392528A1, “IMPROVED PLANT EPSP SYNTHASES AND METHODS OF USE” (PIONEER HI-BRED INTERNATIONAL, INC., priority 2017, published 2020).
Where two headings read alike, the source gives them in different places.

B1: G102A: maize EPSPS with G102A mutation (G101A when numbered without N-terminal Met) (protein)
chain: MAGAEEIVLQPIKEISGTVKLPGSKSLSNRILLLAALSEGTTVVDNLLNSEDVHYMLGALRTLGLSVEADKAAKRAVVVGCGGKFPVEDAKEEVQLFLGNAATAMRPLTAAVTAAGGNATYVLDGVPRMRERPIGDLVVGLKQLGADVDCFLGTDCPPVRVNGIGGLPGGKVKLSGSISSQYLSALLMAAPLALGDVEIEIIDKLISIPYVEMTLRLMERFGVKAEHSDSWDRFYIKGGQKYKSPKNAYVEGDASSASYFLAGAAITGGTVTVEGCGTTSLQGDVKFAEVLEMMGAKVTWTETSVTVTGPPREPFGRKHLKAIDVNMNKMPDVAMTLAVVALFADGPTAIRDVASWRVKETERMVAIRTELTKLGASVEEGPDYCIITPPEKLNVTAIDTYDDHRMAMAFSLAACAEVPVTIRDPGCTRKTFPDYFDVLSTFVKN
modifications: Zea mays
B2: Zm native: native maize EPSPS with added N-terminal Met, SEQ ID NO: 1, reference EPSPS sequence (protein)
chain: MAGAEEIVLQPIKEISGTVKLPGSKSLSNRILLLAALSEGTTVVDNLLNSEDVHYMLGALRTLGLSVEADKAAKRAVVVGCGGKFPVEDAKEEVQLFLGNAGTAMRPLTAAVTAAGGNATYVLDGVPRMRERPIGDLVVGLKQLGADVDCFLGTDCPPVRVNGIGGLPGGKVKLSGSISSQYLSALLMAAPLALGDVEIEIIDKLISIPYVEMTLRLMERFGVKAEHSDSWDRFYIKGGQKYKSPKNAYVEGDASSASYFLAGAAITGGTVTVEGCGTTSLQGDVKFAEVLEMMGAKVTWTETSVTVTGPPREPFGRKHLKAIDVNMNKMPDVAMTLAVVALFADGPTAIRDVASWRVKETERMVAIRTELTKLGASVEEGPDYCIITPPEKLNVTAIDTYDDHRMAMAFSLAACAEVPVTIRDPGCTRKTFPDYFDVLSTFVKN
modifications: Zea mays
B3: Zm D2: maize EPSPS variant, SEQ ID NO: 10 (protein)
chain: MRGWEEIVLQPIKEISGTVKLPGSKSLSNRILLLAALSEGTTVVDNLLNSEDVHYMLGALRTLGLSVEHDKAAKRAVVVGCGGRFPVEDAKGEVQLFCGNAATAMRPLTAAVTAAGGNATYVLDGVPRMRERPIGDLVVGLKQLGADVDCFLGTDCPPVRVNGIGGLPGGKVKLSGSISSQYLSALLMAAPLALGDVEIEIIDKLISLPYVEMTLRLMERFGVKAEHSDSWDRFYIKGGQKYESPKNAYVEGDASSASYFLAGAAITGGTVTVEGCGTTSLQGDVKFAEVLEMMGAKVTWTETSVTVTGPPREPFGRKHLKAIDVNMNKMPDAAMTLAVVALFADGPTAIRDVASWRVKETERMVAIRTELTKLGASVEEGPDYCIITPPPKLNVTAIDTYGDHRMAMAFSLAACAEVPVTIRDPGCTRKTFPDYFDVLSTFVKN
modifications: Zea mays
B4: Zm D2-15: maize EPSPS variant, SEQ ID NO: 9 (protein)
chain: MRGWEEIVLQPIKEISGTVKLPGSKSLSNRILLLAALAEGTTVVDNLLNSEDVHYMLGALRTLGLSVEHDKAAKRAVVVGCGGRFPVEDAKEEVQLFCGNAATAMRPLTAAVTAAGGNATYVLDGVPRMRERPIGDLVVGLKQLGADVDCFLGTDCPPVRVNGIGGLPGGKVKLSGSISSQYLSALLMAAPLALGDVEIEIIDKLISLPYVEMTLRLMERFGVKAEHNDSWDRFYIKGGQKYESPKNAYVEGDASSASYFLAGAAITGGTVTVEGCGTTSLQGDVKFAEVLEMMGAKVTWTETSVTVSGPPREPFGRKHLKAIDVNMNKMPDAAMTLAVVALFADGPTAIRDVASWRVKETERMVAICTELTKLGASVEEGPDYCIITPPPKLNVTAIDTYGDHRMAMAFSLAACAEVPVTIRDPGCTRKTFPDYFDVLSTFVKN
modifications: Zea mays
B5: Zm D2-64: maize EPSPS variant, SEQ ID NO: 7 (protein)
chain: MRKWEEIVLQPIKEISGTVKLPGSKSLSNRILLLAALSEGTTVVDNLLNSEDVLYMLGALRTLGLSVEHDKAAKRAVVVGCGGRFPVEDAKGEVQLFCGNAATAMRPLTAAVTAAGGNATYVLDGVPRMRERPIGDLVVGLKQLGADVDCFLGTDCPPVRVNGIGGLPGGKVKLSGSISSQYLSALLMAAPLALGDVEIEIIDKLISLPYVEMTLRLMERFGVKAEHSDSWDRFYIKGGQKYESPKNAYVEGDASSASYFLAGAAITGGTVTVEGCGTTSLQGDVKFAEVLEMMGAKVTWTETSVTVTGPPREPFGRKHLKAIDVNMNKMPDAAMTLAVVALFADGPTAIRDVASWRVKETERMVAICTELTKLGASVEEGPDYCIITPPPKLNVTAIDTYGDHRMAMAFSLAACAEVPVTIRDPGCTRKTFPDYFDVLSTFVKN
modifications: Zea mays

Key:
maize EPSPS [1] = experiment: substrate saturation kinetic analysis (kcat, KM PEP, KI glyphosate); assay type: biochemical; conditions: for kcat/Km*Ki: calculated with Km for PEP
Method: (§1) EPSPS activity was determined by quantifying the phosphate generated from the EPSPS reaction. Release of inorganic phosphate was coupled to its reaction with 2-amino-6-mercapto-7-methylpurine ribonucleoside (MESG), catalyzed by purine nucleoside phosphorylase, according to previously described protocols. To determine the kcat gly, enzyme preparations were normalized to 0.1 mg/ml and four- to six-microliter aliquots of normalized enzyme were added to the wells of a low UV-absorbing 96-well assay plate (Greiner UV-Star). Reactions were started with the addition of 2×147 μl of reaction mixture containing 25 mM Hepes, pH 7.0, 100 mM KCl, 5% ethylene glycol, 30 μM each of PEP and S3P, 0.15 mM MESG, 1.5 U/ml purine nucleoside phosphorylase (Sigma N8264) and 1 mM glyphosate. Absorbance was monitored at 4 sec intervals for 50 sec with a Spectramax plate reader (Molecular Devices). […] Division by the enzyme concentration (0.04 to 0.1 uM, depending on activity) yields “kcat gly” in units of min^−1.
(§2) Approximately 30 substitutions were designed into each library. Assuming an average incorporation rate of six substitutions per variant, the theoretical size of such libraries is ˜7×10^5. Libraries were screened using methods described previously and the enhanced method described in Example 2. The number of colony-forming units plated and screened was in the range of 50 to 100% of the theoretical size. Up to 200 colonies per library were picked for evaluation of the expressed variant. Proteins were purified as described previously in PCT/US2016/054399, incorporated herein by reference. Protein concentration was determined by measuring optical density at 280 nm. The extinction coefficient of native maize EPSPS (0.676 OD/mg/ml) was calculated by vNTI and used to convert OD280 to mg/ml. Kinetic parameters were determined as described in Example 1.
Combinatorial shuffling, maize native EPSPS—The mutations discovered were used to construct a combinatorial library designed to explore combinations of the desensitizing mutations in novel sequence contexts provided by the newly identified neutral mutations. Note that the amino acid position numbering in this Example 10 refers to the relative position of native maize EPSPS without the N-terminal Met. Therefore, G101A in this Example would be G102A in reference to SEQ ID NO: 1, wherein the maize EPSPS sequence has a Met added at the N-terminal. The diversity used was the same with the addition of G101A, T102 (IALGV) and P106(WA). In all, 43 substitutions at 29 positions were selected. The library was synthesized entirely from oligonucleotides, using the known technique of synthetic shuffling and was termed NatFS (Native, fully synthetic). The vector DNA of the library was transformed into the BL21(DE3) Tuner-AroA knockout strain and the cells were plated onto M9 medium containing either 30 mM glyphosate and 30 μM of the lac operon inducer isopropyl β-D-1-thiogalactopyranoside (IPTG) or 50 mM glyphosate and no IPTG. The 184 colonies that grew on either plate were picked and subjected to a second tier of screening in which EPSPS proteins were purified and activity measured at high (200 μM) and low (50 μM) PEP and S3P, with or without 10 μM glyphosate. Selected variants were subjected to substrate saturation kinetic analysis.

maize EPSPS [2] = experiment: kcat gly / kgly: enzyme turnover under application conditions (30 μM PEP and S3P, 1 mM glyphosate), phosphate release coupled to MESG; assay type: biochemical
Method: A more straight-forward, accurate and meaningful parameter is one in which one rate measurement is performed under presumed in vivo conditions, if known. To establish a set of conditions that mimic those under which the mutated enzyme needs to perform, the concentrations of PEP and S3P were set low (30 uM, subject to the sensitivity of assay conditions) to approach the presumed intracellular concentrations (˜15 uM, the approximate values of KM for both PEP and S3P). Glyphosate is included at 1 mM. The pH is set at 7.0 and ionic strength at 100 mM KCl, also to mimic known in vivo conditions. Ethylene glycol is present at 5% (v/v) to approximate the dielectric constant of intracellular fluid. The parameter is termed “enzyme turnover under application conditions”, which is herein shortened to “kcat gly”. The conventional formatting of the expression “kcat” is not used, to avoid this term being characterized as a standard kinetic constant.
as §1, §2
A customized parameter for predicting performance in the treated plant that would be a more accurate representation than kcat/Km*Ki. […] However, kcat/Km*Ki may be inadequate for predicting the reaction velocity under the conditions of the application (plants sprayed with glyphosate) because it may neglect concentrations of substrate and inhibitor, factors that are not intrinsic to the enzyme, but on which the reaction rate depends. Therefore, libraries derived from C1 on in FIG. 2 were evaluated with a single rate measurement designed to take all factors in the rate equation for competitive inhibition into account. […] Glyphosate was included at 1 mM, a concentration attainable in tissues, especially meristems, receiving metabolite flow from treated leaves. The pH (7.0), ionic strength (100 mM KCl) and co-solvent concentration (5% ethylene glycol) were also intended to mimic in vivo conditions. The unit for the parameter is reaction rate (μM·min^−1) per enzyme concentration (μM), or min^−1, describing the enzyme turnover under application conditions, which we abbreviate as “kgly”. […]

[3] = Table 2, KM for PEP, read-out: KM
[4] = Table 2, discrimination between glyphosate and PEP
[5] = apparent Km, PEP present at 10 times its Km, read-out: Km S3P
[6] = apparent Km, S3P present at 10 times its Km, read-out: Km PEP
[7] = Table 2, 30 μM PEP and S3P, 1 mM glyphosate, pH 7.0

Molecule | Ki (maize EPSPS [1]; Ki for glyphosate) [µM] | kcat (maize EPSPS [1]; Table 2) [s⁻¹] | kcat/KM*KI (maize EPSPS [1]; Table 2) | Km (maize EPSPS [1]; [3]) [µM] | KI/KM (maize EPSPS [1]; [4]) | Ki (maize EPSPS [1]; Table 2, inhibitor glyphosate) [µM] | Km (maize EPSPS [1]; [5]) [µM] | Km (maize EPSPS [1]; [6]) [µM] | kcat/Km*Ki (maize EPSPS [1]) | kcat (maize EPSPS [1]; maize EPSPS variants) [s⁻¹] | kcat gly (maize EPSPS [2]; [7]) [s⁻¹] | other results
B1 | 1930 ± 40 | 10.2 | 3176 | 315 | 5.11 | 1610 | 84 ± 2.5 | 333 ± 26 | 5780 | 16.67 ± 0.583 | 0.203 | increase in Ki for glyphosate (maize EPSPS [1]; relative to native EPSPS): 30,00 fold; increase in Km for PEP (maize EPSPS [1]; relative to native EPSPS): 35 fold; KI/KM (maize EPSPS [1]; text b176): 5.1; kgly (maize EPSPS [2]; enzyme turnover at 30 μM PEP and S3P, 1 mM glyphosate): 25.7 ± 0.2 min⁻¹
B2 | 0.066 ± 0.003 | 24.4 | 11.8 | 15.7 | 0.008 | 0.13 | 13.2 ± 0.6 | 9.5 ± 0.3 | 11 | 27.17 ± 0.233 | 0 | kcat/KM*KI (maize EPSPS [1]): 11.8; Km (maize EPSPS [1]; approximate value, read-out: Km for S3P): 10 to 15 µM; Ki (maize EPSPS [1]; glyphosate, text b235): 0.066 µM; Km (maize EPSPS [1]; read-out: Km for PEP): 10 to 15 µM
B3 |  | 6.07 | 18100 | 20 | 49.7 | 993 |  |  |  |  | 1.72 | kcat gly (maize EPSPS [2]; Table 5, maize variants): 1.9 s⁻¹; Zm/Os (maize EPSPS [2]; Table 5, ratio of kcat gly, maize variant to rice ortholog): 1.28
B4 |  | 7.87 | 36400 | 21.8 | 77.1 | 1680 |  |  |  |  | 1.7 | 
B5 |  | 7.97 | 22900 | 19.6 | 47.9 | 938 |  |  |  |  | 1.68 | 
